In patent publication US20180127505A1, “HUMANIZED ANTI-AXL ANTIBODIES AND THEIR CONJUGATES” (MEDIMMUNE LIMITED, priority 2015, published 2018):

T1: human Axl-Strep-His (Homo sapiens, UniProt P30530, Q764R)
T1 construct: Strep; His; host or cells: transiently transfected CHO cells
T1 sequence (P30530 26-894 Q764R): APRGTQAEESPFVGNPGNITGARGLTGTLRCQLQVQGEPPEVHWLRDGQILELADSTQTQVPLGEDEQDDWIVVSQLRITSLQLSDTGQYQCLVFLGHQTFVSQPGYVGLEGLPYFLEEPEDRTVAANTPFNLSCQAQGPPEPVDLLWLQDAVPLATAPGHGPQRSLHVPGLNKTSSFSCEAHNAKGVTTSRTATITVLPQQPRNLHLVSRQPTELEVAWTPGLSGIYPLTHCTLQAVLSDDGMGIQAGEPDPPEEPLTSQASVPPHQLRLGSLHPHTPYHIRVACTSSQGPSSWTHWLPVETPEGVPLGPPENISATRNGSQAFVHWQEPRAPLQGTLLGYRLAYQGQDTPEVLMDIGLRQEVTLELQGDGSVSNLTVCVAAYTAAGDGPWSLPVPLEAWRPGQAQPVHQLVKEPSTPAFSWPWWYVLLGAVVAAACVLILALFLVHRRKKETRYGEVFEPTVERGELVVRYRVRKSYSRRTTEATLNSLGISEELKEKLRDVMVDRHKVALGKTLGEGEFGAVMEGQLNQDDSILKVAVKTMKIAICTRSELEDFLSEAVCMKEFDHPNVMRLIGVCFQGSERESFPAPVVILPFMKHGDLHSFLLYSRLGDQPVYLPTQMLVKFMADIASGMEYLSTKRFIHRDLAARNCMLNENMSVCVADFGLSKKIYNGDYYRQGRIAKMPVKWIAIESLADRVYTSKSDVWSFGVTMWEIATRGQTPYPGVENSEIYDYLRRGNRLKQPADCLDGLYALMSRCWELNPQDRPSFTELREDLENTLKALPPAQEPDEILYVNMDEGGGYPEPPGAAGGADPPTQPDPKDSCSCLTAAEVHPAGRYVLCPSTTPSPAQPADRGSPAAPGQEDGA

B1: Ab1 (antibody, V domains shown)
VH: EVQLVESGGDLVKPGGSLKLSCAASGFTFSSYGMSWVRQTPDKRLEWVATISSGGSYTYYPDSVKGRFTISRDNAKNTLYLQMSSLKSEDTAMYYCARHPIYYTYDDTMDYWGQGTSVTVSS
VL: ENVLTQSPAIMAASPGEKVTMTCSASSSVSSGNFHWYQQKPGTSPKLWIYRTSNLASGVPARFSGSGSGTSYSLTISSMEAEDAATYYCQQWSGYPWTFGGGTKLEIK
B2: Ab2: anti-AXL antibody, VH SEQ ID NO. 2, VL SEQ ID NO. 5, constant region derived from human antibodies (antibody, V domains shown)
VH: MGFKMESQFQVFVFVFLWLSGVDGQVQLVESGGGVVQPGRSLRLSCAASGFTFSSYGMSVRQAPGKGLEWVATISSGGSYTYYPDSVKGRFTISRDNSKNTLYLQMNSLRAEDTAVYYCARHPIYYTYDDTMDYWGQGTTVTVSS
VL: MGFKMESQFQVFVFVFLWLSGVDGEIVLTQSPATLSLSPGERATLSCSASSSVSSGNFHWYQQKPGLAPRLLIYRTSNLASGIPDRFSGSGSGTDFTLTISRLEPEDFAVYYCQQWSGYPWTFGPGTKVDIK
modifications: human constant regions; Synthetic heavy chain variable region 1H12RHA; Synthetic light chain variable region 1H12RKA
notes: 5, constant region derived from human antibodies
B3: Ab3: anti-AXL antibody, VH SEQ ID NO. 2, VL SEQ ID NO. 7, constant region derived from human antibodies (antibody, V domains shown)
VH: MGFKMESQFQVFVFVFLWLSGVDGQVQLVESGGGVVQPGRSLRLSCAASGFTFSSYGMSVRQAPGKGLEWVATISSGGSYTYYPDSVKGRFTISRDNSKNTLYLQMNSLRAEDTAVYYCARHPIYYTYDDTMDYWGQGTTVTVSS
VL: MGFKMESQFQVFVFVFLWLSGVDGEIVLTQSPGTLSLSPGERATLSCSASSSVSSGNFHWYQQKPGLAPRLLIYRTSNLASGIPARFSGSGSGTDFTLTISSLEPEDFAVYYCQQWSGYPWTFGGGTKLEIK
modifications: human constant regions; Synthetic heavy chain variable region 1H12RHA; Synthetic light chain variable region 1H12RKB
notes: 7, constant region derived from human antibodies
B4: Ab4: anti-AXL antibody, VH SEQ ID NO. 3, VL SEQ ID NO. 5, constant region derived from human antibodies (antibody, V domains shown)
VH: MGFKMESQFQVFVFVFLWLSGVDGEVQLVESGGGLVQPGGSLRLSCAASGFTFSSYGMSWVRQAPGKGLEWVATISSGGSYTYYPDSVKGRFTISRDNAKNSLYLQMNSLRAEDTAVYYCARHPIYYTYDDTMDYWGQGTLVTVSS
VL: MGFKMESQFQVFVFVFLWLSGVDGEIVLTQSPATLSLSPGERATLSCSASSSVSSGNFHWYQQKPGLAPRLLIYRTSNLASGIPDRFSGSGSGTDFTLTISRLEPEDFAVYYCQQWSGYPWTFGPGTKVDIK
modifications: human constant regions; Synthetic heavy chain variable region 1H12RHB; Synthetic light chain variable region 1H12RKA
notes: as for B2
B5: Ab5: anti-AXL antibody, VH SEQ ID NO. 3, VL SEQ ID NO. 7, constant region derived from human antibodies (antibody, V domains shown)
VH: MGFKMESQFQVFVFVFLWLSGVDGEVQLVESGGGLVQPGGSLRLSCAASGFTFSSYGMSWVRQAPGKGLEWVATISSGGSYTYYPDSVKGRFTISRDNAKNSLYLQMNSLRAEDTAVYYCARHPIYYTYDDTMDYWGQGTLVTVSS
VL: MGFKMESQFQVFVFVFLWLSGVDGEIVLTQSPGTLSLSPGERATLSCSASSSVSSGNFHWYQQKPGLAPRLLIYRTSNLASGIPARFSGSGSGTDFTLTISSLEPEDFAVYYCQQWSGYPWTFGGGTKLEIK
modifications: human constant regions; Synthetic heavy chain variable region 1H12RHB; Synthetic light chain variable region 1H12RKB
notes: as for B3

Legend:
Human Axl-Fc chimera = target: T2, Human Axl-Fc chimera (Homo sapiens, UniProt P30530); experiment: SPR measurement of antibody affinity, AXL-Fc chimera antigen; format: binding; details: for ka, AXL-Fc antigen / kd, AXL-Fc antigen / Kd: HBSEP+ running buffer, bivalent binding model
T2 construct: purchased R&D Systems 154-AL
Protocol: (§1) Protocol 4A: SPR Measurement of Antibody Affinity
(§2) • 1. Sensor Chip CM5 Biacore; Cat. # BR-1000-14 • 2. Amine Coupling Kit (EDC, NHS, ethanolamine-HCl) Biacore; Cat. # BR-1000-50 • 3. Immobilization buffer (10 mM Na acetate, pH 4.0) Biacore; Cat. # BR-1003-49 • 4. 50 mM NaOH Biacore; Cat. # BR-1003-58 • 5. Running buffer (PBS/Tween20 0.05% v/v) • 6. Biacore T200 GE Healthcare • 7. Regeneration solution: 10 mM HCl, 1 M NaCl
(§3) • Activate flow cell 2 with NHS-EDC 420s at 5 μl/min, then inject human AxI-Strep-His (Evitria) (10 μg/mL in 10 mM sodium acetate, pH 4.0) to achieve a coupling of […]. Block with ethanolamine for 420s. Repeat the process for flow cell 1 but with no antigen to create a reference flow cell. 12RU AXL fusion protein was coated. • For the Fc fusion, Human Axl-Fc chimera (R&D Systems #154-AL) (5 μg/mL in 10 mM sodium acetate, pH 4.5) was used with the above protocol. 16RU of AXL-Fc was coated. Protocol with AXL-Strep-His Antigen • Serial 10x dilutions of antibody, from 3000 nM, were made in PBS/Tween20. 2x regeneration cycles were used with 10 mM HCl, 1 M NaCl for 30s at 30 μl/min for both cycles. Start-up solution was PBS/Tween20 and set to 3 cycles. • Sample injection parameters were 120s at 30 μl/min, with 600s dissociation time. • Prime and normalise detector were run before sample application with experimental conditions 25 C and sample storage at 4 C. • Kinetic analysis used BIAevaluation software with bivalent ligand binding model. For chimeric 1H12 with AXL-Strep-His, “heterogeneous ligand” binding model was used due to poor fit with bivalent or monovalent algorithms. • Each antibody dilution was injected twice. Protocol with AXL-Fc Chimera Antigen • The above protocol was used except that the running buffer was HBSEP+, serial 10x dilutions of antibody were from 500 nM in HBSEP+ running buffer and were injected for 180 sec. • Analysis used BIAevaluation software with the bivalent binding model.

[1] = Protein thermal shift (Tm); format: physicochemical; details: 0.5 mg/mL in PBS, HEK293F expression product
Protocol: Protocol 6: Protein Thermal Shift Protocol
• 96 well optical plate semi-skirted (Starlab cat.L1402-9700). • Protein thermal shift dye kit (Life Technologies cat.446148). • Microamp optical adhesive film (Applied Biosystems) • 7500 Real-Time PCR System (Life Technologies) • Test items: Antibodies from Evitria and Spirogen • Protein thermal shift v1.2 software (Life Technologies)
Protein thermal shift dye (2.5 μL 1:1000 dilution) was added to sample proteins (17.5 μL of 0.5 mg/mL in PBS) in a 96 well optical plate and mixed thoroughly. Every sample was done in quadruplicate. The plate was sealed with a optical adhesive film and bubbles in the wells were removed by centrifugation 1 min at 500 g, then placed on ice. The sealed plate was introduced in the 7500 Real-Time PCR System and subsequently the experiment was set up as follows:
Data analysis and derivation of Tm data were done using the software following the manufacturers instructions.

human Axl-Strep-His = target: T1, human Axl-Strep-His; experiment: SPR measurement of antibody affinity, AXL-Strep-His antigen; format: binding; details: for ka, AXL-Strep-His antigen / kd, AXL-Strep-His antigen / Kd: SPR Biacore T200, 25 C, bivalent ligand model (Ab1: heterogeneous ligand model); for affinity for Axl-Strep-His compared with Ab1: SPR; for Kd: read-out: KD1, AXL-Strep-His antigen
Protocol: as §1, §2, §3

T2 sequence (P30530 with tags, fused parts or gaps isoform P30530-2 limits assumed): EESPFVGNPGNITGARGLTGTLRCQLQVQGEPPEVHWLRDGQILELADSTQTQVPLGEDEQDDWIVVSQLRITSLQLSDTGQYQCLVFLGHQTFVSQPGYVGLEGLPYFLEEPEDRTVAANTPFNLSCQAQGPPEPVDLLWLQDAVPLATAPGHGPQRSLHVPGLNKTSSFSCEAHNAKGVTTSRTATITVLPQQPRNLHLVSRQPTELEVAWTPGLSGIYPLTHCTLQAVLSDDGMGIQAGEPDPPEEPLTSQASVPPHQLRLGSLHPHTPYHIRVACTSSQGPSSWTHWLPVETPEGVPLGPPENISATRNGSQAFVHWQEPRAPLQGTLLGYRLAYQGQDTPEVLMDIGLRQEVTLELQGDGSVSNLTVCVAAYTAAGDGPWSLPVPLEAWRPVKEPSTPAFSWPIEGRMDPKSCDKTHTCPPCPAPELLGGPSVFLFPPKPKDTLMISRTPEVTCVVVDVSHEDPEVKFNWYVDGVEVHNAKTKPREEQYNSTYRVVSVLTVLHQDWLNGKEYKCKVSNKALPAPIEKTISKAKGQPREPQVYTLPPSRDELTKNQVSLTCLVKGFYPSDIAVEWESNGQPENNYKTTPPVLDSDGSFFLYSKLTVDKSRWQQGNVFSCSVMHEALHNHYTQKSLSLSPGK

Molecule	ka, AXL-Fc antigen (Human Axl-Fc chimera) [M⁻¹ s⁻¹]	kd, AXL-Fc antigen (Human Axl-Fc chimera) [s⁻¹]	Tm [1] [°C]	ka, AXL-Strep-His antigen (human Axl-Strep-His) [M⁻¹ s⁻¹]	kd, AXL-Strep-His antigen (human Axl-Strep-His) [s⁻¹]	affinity for Axl-Fc compared with Ab1 (Human Axl-Fc chimera)	Kd (Human Axl-Fc chimera) [nM]	affinity for Axl-Strep-His compared with Ab1 (human Axl-Strep-His)	Kd (human Axl-Strep-His) [nM]
B1	30900	0.000142	69.52	13100	0.000533	–	–	–	–
B2	83700	0.000154	59.71	13200	0.000441	higher affinity	1.84	higher affinity	33.4
B3	24500	0.0002	62.05	19200	0.000636	–	8.5	higher affinity	33.1
B4	290000	0.000396	60.32	9759	0.00059	higher affinity	–	–	–
B5	20600	0.000159	63.06	18900	0.000435	–	–	higher affinity	–
